# Laboratory results taken from IntAct's records for PubMed 11739401.
# B1: Ras-related protein Rab-2A (Homo sapiens), P61019 (parent)
# chain: MAYAYLFKYIIIGDTGVGKSCLLLQFTDKRFQPVHDLTIGVEFGARMITIDGKQIKLQIWDTAGQESFRSITRSYYRGAAGALLVYDITRRDTFNHLTTWLEDARQHSNSNMVIMLIGNKSDLESRREVKKEEGEAFAREHGLIFMETSAKTASNVEEAFINTAKEIYEKIQEGVFDINNEANGIKIGPQHAATNATHAGNQGGQQAGGGCC
# partner: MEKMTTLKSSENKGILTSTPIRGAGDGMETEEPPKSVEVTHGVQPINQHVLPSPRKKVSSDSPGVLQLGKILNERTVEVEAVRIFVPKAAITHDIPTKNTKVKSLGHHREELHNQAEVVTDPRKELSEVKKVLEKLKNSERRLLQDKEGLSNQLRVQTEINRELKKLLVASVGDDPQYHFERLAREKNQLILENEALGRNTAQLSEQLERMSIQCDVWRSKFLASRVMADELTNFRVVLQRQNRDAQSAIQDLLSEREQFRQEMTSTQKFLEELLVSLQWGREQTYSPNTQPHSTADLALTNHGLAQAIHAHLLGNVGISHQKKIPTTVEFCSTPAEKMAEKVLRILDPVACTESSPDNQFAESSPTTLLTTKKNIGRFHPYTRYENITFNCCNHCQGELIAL
# Variants of: B1
# Settings: with go45_mouse Blzf1, Q8R2X8
row,effect of a mutation on the interaction,Variant
1,increasing interaction,Q65L
